The record followed here is patent US20180355035A1 (STCUBE, published 2018).

The target in experiment [1] is T1, human BTN1A1 extracellular domain tagged with 6xHis (human, UniProt Q13410 27-242, N-glycosylated (removed by PNGase F in the deglycosylated control)).
T1 construct: also called hBTN1A1-His; BTN1A1-His
T1 chain: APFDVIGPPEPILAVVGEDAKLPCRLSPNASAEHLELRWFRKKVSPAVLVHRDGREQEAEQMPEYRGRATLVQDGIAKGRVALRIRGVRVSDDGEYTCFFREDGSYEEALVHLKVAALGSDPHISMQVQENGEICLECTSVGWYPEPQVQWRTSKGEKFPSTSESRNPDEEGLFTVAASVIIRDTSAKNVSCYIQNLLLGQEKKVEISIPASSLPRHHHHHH
Nature of the experiment: SPR (Biacore), STC810 captured on Protein A chip, BTN1A1-ECD-His injected; column headed 'kd (1/Ms)'. The procedure: (§1) FIG. 11—Surface plasmon resonance analysis of BTN1A1-Fc and BTN1A1-His binding to immobilized STC810 MAb. FIG. 11A: Sensorgrams showing real-time binding of soluble BTN1A1-Fc protein (2-64 nM with 2-fold dilution) to STC810 immobilized on a Protein A-CM5 chip. Flow cells without any immobilized protein were used as the controls for non-specific binding and were subtracted from the presented data. FIG. 11B: Sensorgrams showing real-time binding of soluble BTN1A1-His protein (2-64 nM with 4-fold dilution) to STC810 immobilized on a Protein A-CM5 chip.
(§2) In a Biacore assay, the binding affinity between BTN1A1 and monoclonal anti-BTN1A1 antibody STC810 was measured by Surface Plasmon Resonance. Sensorgram and saturation curve of the titration of antibody by BTN1A1-ECD tagged with 6×His or human IgG1 Fc. The protein A chip (BIAcore) was coated with antibody with 600 response units (RU) and the BTN1A1 ECD was injected in the microfluidic channel. The KD values were obtained using the fitting tool of the BIAevaluation software (BIAcore). FIG. 11 provides sensorgrams showing real-time binding of soluble BTN1A1-Fc protein (2-64 nM with 2-fold dilution; FIG. 11A) or soluble BTN1A1-His protein (2-64 nM with 4-fold dilution; FIG. 11B) to STC810 immobilized on a Protein A-CM5 chip. […]
(In general: In SPR one partner is held on a chip, and binding of the other changes the refractive index at the surface.)

The next experiment deals with T2, mBTNA1A-FC (Mus musculus, UniProt Q62556).
T2 construct: antigen of lanes 5-8 of the dot blot, used untreated and PNGase F treated; the sheet prints mBTNA1A-FC; also called mouse BTN1A1-Fc; mouse BTN1A1 tagged with human IgG1 Fc region
T2 sequence (Fc fusion chain, looked up): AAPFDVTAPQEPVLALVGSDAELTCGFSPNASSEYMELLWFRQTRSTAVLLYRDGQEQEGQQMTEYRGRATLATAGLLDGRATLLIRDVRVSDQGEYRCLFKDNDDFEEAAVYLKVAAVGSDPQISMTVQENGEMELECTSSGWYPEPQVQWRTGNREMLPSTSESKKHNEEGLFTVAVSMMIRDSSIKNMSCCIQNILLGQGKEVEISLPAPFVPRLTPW
Put plainly: dot blot (layout FIG. 9B), lanes 5-8 mBTNA1A-FC = mouse BTN1A1-Fc, untreated and PNGase F treated. The procedure:
FIG. 9—Dot blot analysis of mouse anti-human BTN1A1 antibodies. […] Antigen BTN1A1-ECD tagged with 6×His was treated with PNGase F to remove N-glycosylation. Polyclonal antibodies were used for positive control. To test the species specificity of BTN1A1, human and mouse BTN1A1 tagged with human IgG1 Fc region was used (lane 1-4 with human BTN1A1-Fc and lane 5-8 with mouse BTN1A1-Fc). The term “ECD” stands for extracellular domain.
The glyco-specificity of monoclonal anti-BTN1A1 antibodies was characterized by dot blot analysis. Each anti-BTN1A1 mAb (0.5 μg/well loaded) was tested for binding to glycosylated BTN1A1 (PNGaseF “−”) or deglycosylated BTN1A1 (PNGaseF “+”). Non-specific antibody controls (“IgG,” 0.25 μg/well loaded) was also included in the assay. As shown in FIGS. 9A-9B, both glycosylated BTN1A1 protein and non-glycosylated BTN1A1 (BTN1A1 protein treated with PNGase F) were coated on the solid phase and tested for mAbs and antigens binding affinity. […] The glyco-specificity of monoclonal anti-BTN1A1 antibodies was also characterized by FACS analysis. […] After washing, fluorescence intensity (MFI) was measured to assess relative binding of antibodies to membrane bound glycosylated or unglycosylated BTN1A1.

The target in experiment [2] is T3, human BTN1A1 extracellular domain tagged with human IgG1 Fc (human, UniProt Q13410 27-242).
T3 construct: also called hBTN1A1-Fc; BTN1A1-Fc; not shown: human IgG1 Fc region
T3 chain: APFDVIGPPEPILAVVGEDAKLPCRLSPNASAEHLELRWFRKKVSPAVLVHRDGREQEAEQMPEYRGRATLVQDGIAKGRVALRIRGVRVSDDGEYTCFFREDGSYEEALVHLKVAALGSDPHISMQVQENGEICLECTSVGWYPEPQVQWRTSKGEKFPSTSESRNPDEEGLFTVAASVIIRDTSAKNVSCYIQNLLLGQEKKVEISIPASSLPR
Nature of the experiment: BLI (Octet), antibody loaded on sensor, single analyte concentration, 1:1 fit; column headed 'kd (1/Ms)'. The procedure:
(§3) The KD value of STC810 was also determined in an octet assay. […] Baseline was established in PBS containing 1 mg/ml bovine serum albumin (assay buffer), the association step was performed by submerging the sensors in a single concentration of analyte in assay buffer. Dissociation was performed and monitored in fresh assay buffer. All experiments were performed with sensor shaking at 1,000 rpm. ForteBio's data analysis software was used to fit the data to a 1:1 binding model to extract an association rate and dissociation rate. The KD value was calculated using the ratio kd/ka. In a typical epitope binning assay, antigen BTN1A1-Fc (10 nM) was preincubated with the second antibody (10 nM) for 1 h at room temperature. Control antibody (20 nM) was loaded onto AMC sensors (ForteBio) and remaining Fc-binding sites on the sensor were blocked with a whole mouse IgG antibody (Jackson ImmunoResearch). The sensors were exposed to preinculated antigen-second antibody mixture. Raw data was processed using ForteBio's Data Analysis Software 7.0 and the antibody pairs were assessed for competitive binding. Additional binding by the second antibody indicates an unoccupied epitope (non-competitor), while no binding indicates epitope blocking (competitor).

Experiment [3] has as its target T3, human BTN1A1 extracellular domain …. Put plainly: BLI (Octet), antibody loaded on sensor, single analyte concentration, 1:1 fit. As for the experimental part:
as §3
A general note: BLI is a label-free optical method that tracks binding on a fibre tip over time.

Experiment [4] has the same target. Nature of the experiment: SPR (Biacore), STC810 captured on Protein A chip, BTN1A1-ECD-Fc injected. As for the experimental part: as §1, §2
Experiment [5] has the same target. Put plainly: BLI (Octet), antibody loaded on sensor, single analyte concentration, 1:1 fit; column headed 'ka (1/s)'. The procedure: as §3
Experiment [6] shares this target. Put plainly: SPR (Biacore), STC810 captured on Protein A chip, BTN1A1-ECD-Fc injected; column headed 'kd (1/Ms)'. As for the experimental part:
as §1, §2

Experiment [7] shares this target. Put plainly: SPR (Biacore), STC810 captured on Protein A chip, BTN1A1-ECD-Fc injected; column headed 'ka (1/s)'. The procedure:
as §1, §2

Experiment [8] concerns the target T1, human BTN1A1 extracellular domain …. Nature of the experiment: SPR (Biacore), STC810 captured on Protein A chip, BTN1A1-ECD-His injected. The procedure: as §1, §2
Experiment [9] shares this target. Put plainly: SPR (Biacore), STC810 captured on Protein A chip, BTN1A1-ECD-His injected; column headed 'ka (1/s)'. The procedure: as §1, §2
Experiment [10] concerns the target T4, hBTN1A1 overexpressed in PC3 prostate cancer cells (human, UniProt Q13410 27-526).
T4 sequence: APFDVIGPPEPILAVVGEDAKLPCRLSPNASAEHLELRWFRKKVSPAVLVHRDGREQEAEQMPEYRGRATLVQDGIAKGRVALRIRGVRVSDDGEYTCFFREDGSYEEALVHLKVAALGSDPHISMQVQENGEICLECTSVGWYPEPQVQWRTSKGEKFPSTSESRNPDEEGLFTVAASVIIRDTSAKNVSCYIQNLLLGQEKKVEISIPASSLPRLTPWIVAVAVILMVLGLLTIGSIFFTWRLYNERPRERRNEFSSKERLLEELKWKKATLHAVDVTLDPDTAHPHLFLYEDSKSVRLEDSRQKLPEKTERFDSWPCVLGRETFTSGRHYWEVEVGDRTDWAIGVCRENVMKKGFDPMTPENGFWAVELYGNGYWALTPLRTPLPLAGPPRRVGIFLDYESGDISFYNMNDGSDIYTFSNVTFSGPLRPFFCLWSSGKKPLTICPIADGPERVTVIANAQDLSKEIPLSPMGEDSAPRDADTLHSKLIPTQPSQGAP
Put plainly: cell-based or functional assay.

Experiment [11] has as its target T5, wild-type human BTN1A1 expressed in HEK293T cells (human, UniProt Q13410 27-526, fully glycosylated, as the filing says).
T5 construct: in whole-cell lysates in the Western blot; also called BTN1A1 WT; human BTN1A1 WT; not shown: C-terminal flag tag
T5 sequence: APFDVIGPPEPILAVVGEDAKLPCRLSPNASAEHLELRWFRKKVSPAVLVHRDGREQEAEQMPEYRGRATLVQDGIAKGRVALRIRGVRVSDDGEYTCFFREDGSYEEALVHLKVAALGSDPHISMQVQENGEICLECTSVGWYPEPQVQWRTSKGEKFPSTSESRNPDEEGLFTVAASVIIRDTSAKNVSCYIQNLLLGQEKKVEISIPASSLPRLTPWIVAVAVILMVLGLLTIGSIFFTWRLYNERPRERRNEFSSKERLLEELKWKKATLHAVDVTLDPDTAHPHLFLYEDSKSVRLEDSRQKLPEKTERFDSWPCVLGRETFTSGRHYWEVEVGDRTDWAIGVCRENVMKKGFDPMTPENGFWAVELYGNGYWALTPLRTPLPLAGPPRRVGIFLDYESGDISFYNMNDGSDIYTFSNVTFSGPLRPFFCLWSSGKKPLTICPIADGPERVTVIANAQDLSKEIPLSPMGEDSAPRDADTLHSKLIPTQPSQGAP
Put plainly: FACS on 293T cells overexpressing BTN1A1 WT or 2NQ, FITC secondary antibody. As for the experimental part: FIG. 10—FACS analysis of mouse anti-human BTN1A1 monoclonal antibodies. Human BTN1A1-2NQ (i.e. N55Q and N215Q) and human BTN1A1 WT were expressed in HEK293T cells by transient transfection. The surface expression of hBTN1A1 was measured by FACS analysis with anti-BTN1A1 monoclonal antibodies designated as STC702, STC810, STC819, STC820, STC821, STC822, STC838, and STC839. Anti-BTN1A1 polyclonal antibodies were used as a positive control.
The glyco-specificity of monoclonal anti-BTN1A1 antibodies was characterized by dot blot analysis. Each anti-BTN1A1 mAb (0.5 μg/well loaded) was tested for binding to glycosylated BTN1A1 (PNGaseF “−”) or deglycosylated BTN1A1 (PNGaseF “+”). Non-specific antibody controls (“IgG,” 0.25 μg/well loaded) was also included in the assay. As shown in FIGS. 9A-9B, both glycosylated BTN1A1 protein and non-glycosylated BTN1A1 (BTN1A1 protein treated with PNGase F) were coated on the solid phase and tested for mAbs and antigens binding affinity. […] The glyco-specificity of monoclonal anti-BTN1A1 antibodies was also characterized by FACS analysis. […] After washing, fluorescence intensity (MFI) was measured to assess relative binding of antibodies to membrane bound glycosylated or unglycosylated BTN1A1. […]

B1: mouse monoclonal anti-human BTN1A1 antibody STC810 (antibody, V domains shown)
VH: EVQLQQSGPELVKPGASVKISCKASGYTFTHYNMDWVKQSHGKSLEWIGYIYPSNGGTGYNQKFKSRATLTVDKSSSTAYMELHSLTSEDSAVYYCARGAYHYGSSYAYWYFDVWGAGTTVTVSS
VL: DIQMTQTTSSLSASLGDRVTISCSASQDISNYLNWYQQKPDETVKLLISYTSSLHSGVPSRFSGSGSGTDYSLTISNLAPEDIATYYCQQSSKLPFTFGSGTELEIKR
notes: also called STC838; STC810 MAb
For B1, the kon in [1] was determined as 269000 M⁻¹ s⁻¹; in experiment [2] it was 145000 M⁻¹ s⁻¹; in experiment [6], 98900 M⁻¹ s⁻¹. The binding result with mBTNA1A-FC is “no binding (tested: 0.5 µg/well)”. Also, the Kd in experiment [3] turned out to be 2.12 nM; in experiment [4] it was 1.81 nM; in experiment [8], 14.9 nM. For the same molecule, the koff came to 0.000309 s⁻¹ in [5], 0.00018 s⁻¹ in experiment [7] and 0.00402 s⁻¹ in experiment [9]. Also, in experiment [10], the “relative apoptosis of PC3 cells at 120 h (caspase 3/7), with activated T cells, 50 µg/ml STC810” value turned out to be 2 fold. Besides, in [11], the “fold MFI on glycosylated BTN1A1 (WT) over unglycosylated BTN1A1 (2NQ)” value stood at 5 fold.

In general, kon refers to the second-order rate constant of association. Higher therefore signals fast association. Broadly, the Kd is a measure of binding affinity in units of concentration. A higher Kd goes with weaker binding. As a reminder, the koff is the first-order rate constant of dissociation. Lower therefore signals a long-lived complex.
